In the Human Domainome abundance scans (Beltran et al. 2025) one finds abundance fitness data, which are given here for 36 variants.

The chains are these.
B1: Glucocorticoid receptor, residues 419 to 494; numbered along this chain, P04150 (parent)
chain: KLCLVCSDEASGCHYGVLTCGSCKVFFKRAVEGQHNYLCAGRNDCIIDKIRRKNCPACRYRKCLQAGMNLEARKTK

± gives the uncertainty stated by the source.

Variants of B1 are the subject of this series. Kind of series: abundance fitness (aPCA) (normalised: wild type 0, dead -1); higher = more abundant; growth selection in yeast, the domain comes from the species named. As to conditions: Homo sapiens.
Turning to KLCLVCSDEASGCHYGVLTCGSCKVFFKRAVEGQHNYLCAGRNDCIIDKIRRKNCPACRYRKCPQAGMNLEARKTK [L64P], the abundance fitness is -0.682 ± 0.13. With KLCLVCSDEASGCHYGVLTCGSCKVFFKRAVEGQHNYLCAGRNDCIIDKIRRKNCPACRYRKCYQAGMNLEARKTK [L64Y] the figure was -0.161 ± 0.061; with KLCLVCSDEASGCHYGVLTCGSCKVFFKRAVEGQHNYLCAGRNDCIIDKIRRKNCPACRYRKCLQPGMNLEARKTK [A66P], -0.859 ± 0.14; with KLCLVCSDEASGCHYGVLTCGSCKVFFKRAVEGQHNYLCAGRNDCIIDKIRRKNCPACRYRKCLQYGMNLEARKTK [A66Y], -0.014 ± 0.065.

For KLCLVCSDEASGCHYGVLTCGSCKVFFKRAVEGQHNYLCAGRNDCIIDKIRRKNCPACRYRKCLQKGMNLEARKTK [A66K], the abundance fitness was 0.024 ± 0.058. As for KLCLVCSDEASGCHYGVLTCGSCKVFFKRAVEGQHNYLCAGRNDCIIDKIRRKNCPACRYRKCLQTGMNLEARKTK [A66T], the figure is 0.029 ± 0.047; as for KLCLVCSDEASGCHYGVLTCGSCKVFFKRAVEGQHNYLCAGRNDCIIDKIRRKNCPACRYRKCLQDGMNLEARKTK [A66D], -0.33 ± 0.082; as for KLCLVCSDEASGCHYGVLTCGSCKVFFKRAVEGQHNYLCAGRNDCIIDKIRRKNCPACRYRKCLQLGMNLEARKTK [A66L], -0.024 ± 0.037. With KLCLVCSDEASGCHYGVLTCGSCKVFFKRAVEGQHNYLCAGRNDCIIDKIRRKNCPACRYRKCLQIGMNLEARKTK [A66I], the abundance fitness is -0.242 ± 0.073. As for KLCLVCSDEASGCHYGVLTCGSCKVFFKRAVEGQHNYLCAGRNDCIIDKIRRKNCPACRYRKCLQSGMNLEARKTK [A66S], the figure is -0.058 ± 0.039; as for KLCLVCSDEASGCHYGVLTCGSCKVFFKRAVEGQHNYLCAGRNDCIIDKIRRKNCPACRYRKCLQQGMNLEARKTK [A66Q], -0.037 ± 0.059; as for KLCLVCSDEASGCHYGVLTCGSCKVFFKRAVEGQHNYLCAGRNDCIIDKIRRKNCPACRYRKCLQGGMNLEARKTK [A66G], -0.109 ± 0.044.

As for KLCLVCSDEASGCHYGVLTCGSCKVFFKRAVEGQHNYLCAGRNDCIIDKIRRKNCPACRYRKCLQMGMNLEARKTK [A66M], the abundance fitness was -0.031 ± 0.049. As for KLCLVCSDEASGCHYGVLTCGSCKVFFKRAVEGQHNYLCAGRNDCIIDKIRRKNCPACRYRKCLQHGMNLEARKTK [A66H], the figure is -0.052 ± 0.051.

KLCLVCSDEASGCHYGVLTCGSCKVFFKRAVEGQHNYLCAGRNDCIIDKIRRKNCPACRYRKCLQCGMNLEARKTK [A66C]: the abundance fitness was -0.037 ± 0.048.

Consider KLCLVCSDEASGCHYGVLTCGSCKVFFKRAVEGQHNYLCAGRNDCIIDKIRRKNCPACRYRKCLQVGMNLEARKTK [A66V], for which the abundance fitness came to 0.021 ± 0.033. With KLCLVCSDEASGCHYGVLTCGSCKVFFKRAVEGQHNYLCAGRNDCIIDKIRRKNCPACRYRKCLQEGMNLEARKTK [A66E] the figure was -0.036 ± 0.048.

Consider KLCLVCSDEASGCHYGVLTCGSCKVFFKRAVEGQHNYLCAGRNDCIIDKIRRKNCPACRYRKCLQNGMNLEARKTK [A66N], for which the abundance fitness is -0.02 ± 0.075. With KLCLVCSDEASGCHYGVLTCGSCKVFFKRAVEGQHNYLCAGRNDCIIDKIRRKNCPACRYRKCLQRGMNLEARKTK [A66R] the figure was -0.179 ± 0.036. With KLCLVCSDEASGCHYGVLTCGSCKVFFKRAVEGQHNYLCAGRNDCIIDKIRRKNCPACRYRKCLQWGMNLEARKTK [A66W] the figure was -0.227 ± 0.05; with KLCLVCSDEASGCHYGVLTCGSCKVFFKRAVEGQHNYLCAGRNDCIIDKIRRKNCPACRYRKCLQAVMNLEARKTK [G67V], -0.583 ± 0.076; with KLCLVCSDEASGCHYGVLTCGSCKVFFKRAVEGQHNYLCAGRNDCIIDKIRRKNCPACRYRKCLQATMNLEARKTK [G67T], -0.51 ± 0.08. With KLCLVCSDEASGCHYGVLTCGSCKVFFKRAVEGQHNYLCAGRNDCIIDKIRRKNCPACRYRKCLQAQMNLEARKTK [G67Q] the figure was -0.371 ± 0.081; with KLCLVCSDEASGCHYGVLTCGSCKVFFKRAVEGQHNYLCAGRNDCIIDKIRRKNCPACRYRKCLQAAMNLEARKTK [G67A], -0.542 ± 0.067; with KLCLVCSDEASGCHYGVLTCGSCKVFFKRAVEGQHNYLCAGRNDCIIDKIRRKNCPACRYRKCLQAYMNLEARKTK [G67Y], -0.304 ± 0.16. For the variant KLCLVCSDEASGCHYGVLTCGSCKVFFKRAVEGQHNYLCAGRNDCIIDKIRRKNCPACRYRKCLQAKMNLEARKTK [G67K], the abundance fitness is -0.308 ± 0.082.

In the case of KLCLVCSDEASGCHYGVLTCGSCKVFFKRAVEGQHNYLCAGRNDCIIDKIRRKNCPACRYRKCLQAWMNLEARKTK [G67W], the abundance fitness was -0.656 ± 0.092. On to KLCLVCSDEASGCHYGVLTCGSCKVFFKRAVEGQHNYLCAGRNDCIIDKIRRKNCPACRYRKCLQAIMNLEARKTK [G67I], for which the abundance fitness was -0.415 ± 0.21. Take KLCLVCSDEASGCHYGVLTCGSCKVFFKRAVEGQHNYLCAGRNDCIIDKIRRKNCPACRYRKCLQACMNLEARKTK [G67C]: the abundance fitness was -0.534 ± 0.17. Consider KLCLVCSDEASGCHYGVLTCGSCKVFFKRAVEGQHNYLCAGRNDCIIDKIRRKNCPACRYRKCLQAEMNLEARKTK [G67E], for which the abundance fitness is -0.228 ± 0.07. As to KLCLVCSDEASGCHYGVLTCGSCKVFFKRAVEGQHNYLCAGRNDCIIDKIRRKNCPACRYRKCLQASMNLEARKTK [G67S], the abundance fitness was -0.516 ± 0.079. Take KLCLVCSDEASGCHYGVLTCGSCKVFFKRAVEGQHNYLCAGRNDCIIDKIRRKNCPACRYRKCLQARMNLEARKTK [G67R]: the abundance fitness was -0.491 ± 0.055.

In the case of KLCLVCSDEASGCHYGVLTCGSCKVFFKRAVEGQHNYLCAGRNDCIIDKIRRKNCPACRYRKCLQAPMNLEARKTK [G67P], the abundance fitness was -0.904 ± 0.19.

As to KLCLVCSDEASGCHYGVLTCGSCKVFFKRAVEGQHNYLCAGRNDCIIDKIRRKNCPACRYRKCLQAFMNLEARKTK [G67F], the abundance fitness is -0.447 ± 0.12. As for KLCLVCSDEASGCHYGVLTCGSCKVFFKRAVEGQHNYLCAGRNDCIIDKIRRKNCPACRYRKCLQADMNLEARKTK [G67D], the figure is -0.347 ± 0.12; as for KLCLVCSDEASGCHYGVLTCGSCKVFFKRAVEGQHNYLCAGRNDCIIDKIRRKNCPACRYRKCLQANMNLEARKTK [G67N], -0.226 ± 0.1.
